Reference: article PMC8079276

Target: UDP-N-acetylglucosamine-peptide N-acetylglucosaminyltransferase (mouse (endogenous in MEFs)) (UniProt Q8CGY8)
Test: co-IP; data not shown: share of HCF1 of the MEF lysate that is enriched by immunoprecipitation of endogenous OGT

UniProt Q8CGY8, sequence (Q8CGY8 whole entry): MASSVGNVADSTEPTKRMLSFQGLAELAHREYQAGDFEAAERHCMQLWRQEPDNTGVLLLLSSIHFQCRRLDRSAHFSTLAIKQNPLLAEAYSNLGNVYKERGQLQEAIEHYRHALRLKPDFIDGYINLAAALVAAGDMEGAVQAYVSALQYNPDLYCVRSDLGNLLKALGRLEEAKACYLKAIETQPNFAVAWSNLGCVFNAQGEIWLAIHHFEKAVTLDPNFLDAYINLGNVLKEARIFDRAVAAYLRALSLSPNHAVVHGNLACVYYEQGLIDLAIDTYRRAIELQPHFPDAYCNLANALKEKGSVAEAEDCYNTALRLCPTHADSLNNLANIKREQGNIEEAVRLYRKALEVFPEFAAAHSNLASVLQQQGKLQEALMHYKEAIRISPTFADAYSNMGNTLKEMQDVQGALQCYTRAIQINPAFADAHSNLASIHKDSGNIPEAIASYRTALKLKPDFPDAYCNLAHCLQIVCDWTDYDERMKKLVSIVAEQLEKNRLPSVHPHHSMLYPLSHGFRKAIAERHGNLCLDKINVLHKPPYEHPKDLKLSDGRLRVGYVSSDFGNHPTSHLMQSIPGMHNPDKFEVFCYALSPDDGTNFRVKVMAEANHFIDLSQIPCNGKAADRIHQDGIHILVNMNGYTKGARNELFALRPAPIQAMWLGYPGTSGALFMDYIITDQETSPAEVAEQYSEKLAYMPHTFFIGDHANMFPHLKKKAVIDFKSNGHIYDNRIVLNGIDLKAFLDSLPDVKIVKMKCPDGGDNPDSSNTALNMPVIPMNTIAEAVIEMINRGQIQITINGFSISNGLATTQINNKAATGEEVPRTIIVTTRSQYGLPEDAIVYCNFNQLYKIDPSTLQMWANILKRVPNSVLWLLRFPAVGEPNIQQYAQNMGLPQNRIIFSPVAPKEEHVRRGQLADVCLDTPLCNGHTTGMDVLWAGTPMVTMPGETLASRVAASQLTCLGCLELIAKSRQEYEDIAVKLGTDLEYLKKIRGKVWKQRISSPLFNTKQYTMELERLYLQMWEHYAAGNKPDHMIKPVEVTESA

Host cell factor 1 precursor, Q61191 1-2045
percent of FL HCF1 enriched by OGT immunoprecipitation: 80 to 90%
